Test results from the MegaScale stability set (Tsuboyama et al. 2023).

B1: EEHEE_rd4_0763 (parent)
chain: LTVHVGNVTYHFDNPEQAEEWAKRMAKKYQGQIHVKDGQFRIE
B2: 2K2A (parent)
chain: ELREAFRLYDKEGNGYISTDVMREILAELDETLSSEDLDAMIDEIDADGSGTVDFEEFMGVMT

Variants of: B1
Assay: folding stability dG (cDNA display proteolysis); higher = more stable
Conditions: PBS, room temperature
In the case of LTVHVGNVTYHFDNPEQAEEWAKRMAKKYQVQIHVKDGQFRIE, the “folding stability dG” value is reported as 1.78 kcal/mol.
For LTVHVGNVTYHFDNPEQAEEWAKRMAKKYQNQIHVKDGQFRIE, the “folding stability dG” value was 1.02 kcal/mol.
With LTVHVGNVTYHFDNPEQAEEWAKRMAKKGQGQIHVKDGQFRIE the “folding stability dG” value was 0.732 kcal/mol.
In the case of LTVHVGNVTYHFDNPEQAFEWAKRMAKKYQGQIHVKDGQFRIE, the “folding stability dG” value is reported as 2.3 kcal/mol.
With LTVHVGNVTYHFDNPEQAVEWAKRMAKKYQGQIHVKDGQFRIE the “folding stability dG” value was 1.69 kcal/mol.
In the case of LTVHVGNVTYHFDNPEQALEWAKRMAKKYQGQIHVKDGQFRIE, the “folding stability dG” value is reported as 2.25 kcal/mol.
In the case of LTVHVGNVTYHFDNPEQAEEWAKRMAKKYQGQIHVKDGQGRIE, the “folding stability dG” value is reported as 0.985 kcal/mol.
For LTVHVGNVTYHFDNPEQAEEWAKRMAKKYQGQIHVKDGQQRIE, the “folding stability dG” value was 0.978 kcal/mol.
For LTVHVGNVTYHFDNPEQAEEWAKRMAKKYQGQIHVKDGQVRIE, the “folding stability dG” value was 1.55 kcal/mol.
In the case of LTVHVGNVTYHFDNPEQAEEWAKRMAKKYQGQIHVKDGQKRIE, the “folding stability dG” value is reported as 1.04 kcal/mol.
In the case of LTVHVGNMTYHFDNPEQAEEWAKRMAKKYQGQIHVKDGQFRIE, the “folding stability dG” value is reported as 1.69 kcal/mol.
For LTVHVGNYTYHFDNPEQAEEWAKRMAKKYQGQIHVKDGQFRIE, the “folding stability dG” value was 1.78 kcal/mol.
In the case of LTVHVGNCTYHFDNPEQAEEWAKRMAKKYQGQIHVKDGQFRIE, the “folding stability dG” value is reported as 3.03 kcal/mol.
With LTVHVGNATYHFDNPEQAEEWAKRMAKKYQGQIHVKDGQFRIE the “folding stability dG” value was 1.58 kcal/mol.
With LTVHVGNVTYHFDNPEQAEEWAKRMAKKYDGQIHVKDGQFRIE the “folding stability dG” value was 1.52 kcal/mol.
With LTVHVGNVTYHFDNPEQAEEWAKRMAKKYEGQIHVKDGQFRIE the “folding stability dG” value was 1.33 kcal/mol.
In the case of LTVHVGNVTYHFDNPPQAEEWAKRMAKKYQGQIHVKDGQFRIE, the “folding stability dG” value is reported as 0.809 kcal/mol.
In the case of LTVHVGNVTYHFDNPNQAEEWAKRMAKKYQGQIHVKDGQFRIE, the “folding stability dG” value is reported as 1.56 kcal/mol.
With LTVHVGNVTYHFDNPEQYEEWAKRMAKKYQGQIHVKDGQFRIE the “folding stability dG” value was 1.17 kcal/mol.
In the case of LTVHVGNVTYHFDNPEQCEEWAKRMAKKYQGQIHVKDGQFRIE, the “folding stability dG” value is reported as 1.54 kcal/mol.
In the case of LTVHVGNVTYHFDNPEQAEEWAKRMAKKYQGQIHVKDQQFRIE, the “folding stability dG” value is reported as 0.9 kcal/mol.
With LTVHVGNVTYHFDNPEQAEEWAKRMAKKYQGQIHVKDIQFRIE the “folding stability dG” value was 0.869 kcal/mol.
With LTVHVGNVTYHFDNPEQAEEWAKRMAKKYQGQIHVKDFQFRIE the “folding stability dG” value was 1.1 kcal/mol.
With LTVHVGNVTDHFDNPEQAEEWAKRMAKKYQGQIHVKDGQFRIE the “folding stability dG” value was 0.031 kcal/mol.
With LTVHVGNVTKHFDNPEQAEEWAKRMAKKYQGQIHVKDGQFRIE the “folding stability dG” value was 0.806 kcal/mol.
For LTVHVGNVTYHFDNPEQAEEWAKRMAKKYQGQIHVKSGQFRIE, the “folding stability dG” value was 0.634 kcal/mol.
For LTVHVGNVTYHFDNPEQAEEWAKRMAKKYQGQIHVKMGQFRIE, the “folding stability dG” value was 0.773 kcal/mol.
In the case of LTVHVGNVTYHFDNPEQAEEWAKRMAKKYQGQIHVKLGQFRIE, the “folding stability dG” value is reported as 1.12 kcal/mol.
For LTVHVGNVTYHFDNPEQAEEWAKRMAKKYQGQIHVKQGQFRIE, the “folding stability dG” value was 0.814 kcal/mol.
In the case of LTVHVGNVTYHFDNPEQAEEWAKRMAKKYQGQIHVKRGQFRIE, the “folding stability dG” value is reported as 0.615 kcal/mol.
For LTVHVGNVTYHFDDPEQAEEWAKRMAKKYQGQIHVKDGQFRIE, the “folding stability dG” value was 1.81 kcal/mol.
With LTVHVGNVTYHFDEPEQAEEWAKRMAKKYQGQIHVKDGQFRIE the “folding stability dG” value was 1.36 kcal/mol.
With LTVHVGNVTYHFDFPEQAEEWAKRMAKKYQGQIHVKDGQFRIE the “folding stability dG” value was 1.47 kcal/mol.
In the case of LTVHVGNVTYHFDKPEQAEEWAKRMAKKYQGQIHVKDGQFRIE, the “folding stability dG” value is reported as 1.6 kcal/mol.
In the case of LTVHVGNVTYHFDNPEQAEEWAKRMAKKYQGQIHHKDGQFRIE, the “folding stability dG” value is reported as 1.21 kcal/mol.
With LTVHVGNVTYHFDNPEQAEEWAKRMAKKYQGQIHCKDGQFRIE the “folding stability dG” value was 2.27 kcal/mol.
For LTVHVGNVTYHFDNPEQAEEWAKRMAKKYQGQIHVKDGQFRIN, the “folding stability dG” value was 1.06 kcal/mol.
For LTVHVGNVTYHFDNPEQAEEWAKRMAKKYQGQIHVKDGQFRIA, the “folding stability dG” value was 1.34 kcal/mol.
With LTVHVGNVTYHFDNPEQAEEWAKRMAKKYQGQIHVKDGQFRIC the “folding stability dG” value was 3.04 kcal/mol.
For LTVHVGNVTYHFDNPEQAEEWAKRMAKKYQGQIHVKDGQFRIY, the “folding stability dG” value was 1.71 kcal/mol.
In the case of LTVHVGNVTYHFDNPEQAEEWAKRMAKKYQGQIHVKDGCFRIE, the “folding stability dG” value is reported as 2.92 kcal/mol.
In the case of LTVHVGNVTYHFDNPEQAEEWAKRMAKKYQGQIHVKDGFFRIE, the “folding stability dG” value is reported as 1.17 kcal/mol.
With LTVHVGNVTYHFDNPEQAEEWAKRMAKKYQGQIHVKDGLFRIE the “folding stability dG” value was 0.835 kcal/mol.

Variants of: B2
Assay: as above
Conditions: PBS, room temperature
In the case of ELREAFRLYDKEGNGYISTDVMREILAELDETLSSEDLDAMIDEIDADGSGTVDFPEFMGVMT, the “folding stability dG” value is reported as 1.21 kcal/mol.
With ELREAFRLYDKEGEGYISTDVMREILAELDETLSSEDLDAMIDEIDADGSGTVDFEEFMGVMT the “folding stability dG” value was 0.908 kcal/mol.
In the case of ELREAFRLYDKEGNGYISTDVMREILAELDETLSSEDLDAMIDEIDADGSGTVDFEEFMGVVT, the “folding stability dG” value is reported as 1.34 kcal/mol.
With ELREAFRLYDKEGNGYISTDVMREIAAELDETLSSEDLDAMIDEIDADGSGTVDFEEFMGVMT the “folding stability dG” value was 0.083 kcal/mol.
With ELREAFRLYDKEGNGYISTDVMREILAELDTTLSSEDLDAMIDEIDADGSGTVDFEEFMGVMT the “folding stability dG” value was 2.12 kcal/mol.
For ELREAFRLYDKEGNGYISTDVMREILAELDCTLSSEDLDAMIDEIDADGSGTVDFEEFMGVMT, the “folding stability dG” value was 1.92 kcal/mol.
For ELREAGRLYDKEGNGYISTDVMREILAELDETLSSEDLDAMIDEIDADGSGTVDFEEFMGVMT, the “folding stability dG” value was -0.227 kcal/mol.
With ELREAFRLYDKEGNGYISTDVMREILAELDETLSSEDLDAMIDEIDADGSGTVDFEEFMQVMT the “folding stability dG” value was 2.32 kcal/mol.
For ELREAFRLYDKEGNGYISTDVAREILAELDETLSSEDLDAMIDEIDADGSGTVDFEEFMGVMT, the “folding stability dG” value was 0.924 kcal/mol.
With ELREAFRLYDKEGNGYISTDVHREILAELDETLSSEDLDAMIDEIDADGSGTVDFEEFMGVMT the “folding stability dG” value was -0.985 kcal/mol.
For ELREAFRLYDKEGNGYISTDVMREILAELDETWSSEDLDAMIDEIDADGSGTVDFEEFMGVMT, the “folding stability dG” value was 1.83 kcal/mol.
With ELREAFRLYDKEGNGYISTDVMREILAELDETLSSEDLDAMIDEIDNDGSGTVDFEEFMGVMT the “folding stability dG” value was 1.62 kcal/mol.
For ELREAFRLYDKEGNGYISTDVMREILAELDETLSSMDLDAMIDEIDADGSGTVDFEEFMGVMT, the “folding stability dG” value was 1.7 kcal/mol.
For ELREAFRLYDKEGNGYISTDVMREILAELDETLSSEDLDAMIDEIDADGSGSVDFEEFMGVMT, the “folding stability dG” value was 1.45 kcal/mol.
